{
  "source": "paper PMC7275063",
  "about": "“Rab35-regulated lipid turnover by myotubularins represses mTORC1 activity and controls myelin growth” (Nature Communications, 2020)",
  "binders": {"B1": {"name": "N-terminally FLAG-tagged MTMR13 (natural protein)", "chain": "not shown", "notes": "MTMR13 (SBF2), full length, printed as aa1-1848, 5547 bp; other constructs end at aa1849; Gift plasmid in pcDNA3.1; the printed length of 1849 codons fits the human protein; also called FLAG-MTMR13; source: HEK293T, transfected, in lysate; not shown: FLAG, N-terminal, kept"}},
  "biological_target": "eGFP-Rab35CA (Q67L), GTP-locked, constitutively active (mouse, UniProt Q6PHN9 1-201, Q67L)",
  "sequence (Q6PHN9 whole entry Q67L)": "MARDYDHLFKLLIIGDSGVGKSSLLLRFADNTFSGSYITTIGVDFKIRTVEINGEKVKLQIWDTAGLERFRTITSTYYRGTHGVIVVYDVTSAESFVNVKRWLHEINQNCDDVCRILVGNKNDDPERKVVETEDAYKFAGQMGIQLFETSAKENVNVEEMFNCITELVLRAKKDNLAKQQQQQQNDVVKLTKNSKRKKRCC",
  "assay": "co-IP; eGFP-Rab35CA or -DN captured on eGFP-Trap_MA beads from lysates of HEK293T cells co-expressing MTMR13 constructs, 24 h after transfection; 90 min at 4 °C; immunoblot",
  "details": "partners not purified",
  "data": [
    {"binder": "B1", "values": [
      {"measurement": "ratio of FLAG-MTMR13 bound to CA over DN", "value": 11.6}
    ]}
  ]
}
